Assays:
[1] = biological target: EGFR 273-621 C287R, yeast surface displayed (yeast; human); assay: from the titrations on yeast surface
[2] = biological target: EGFR 273-621 E293K, yeast surface displayed (yeast; human); assay: from the titrations on yeast surface
[3] = biological target: EGFR 273-621 E293K, yeast surface displayed (yeast; human); assay: titration on yeast surface, flow cytometry
[4] = biological target: wt-EGFR, FLAG-tagged full-length human EGFR on BaF/3 cells (human) (UniProt P00533); assay: FACS on wtEGFR-BaF/3 cells, 10 µg/ml antibody
[5] = biological target: wt-EGFR, FLAG-tagged full-length human EGFR on BaF/3 cells (human) (UniProt P00533); assay: FACS on wtEGFR-BaF/3 cells, median fluorescence against mock preincubation
[6] = biological target: EGFR 273-621 C287R, yeast surface displayed (yeast; human); assay: titration on yeast surface, flow cytometry, global fit of three data sets
[7] = biological target: wild-type EGFR 273-621, yeast surface displayed (Example 3) (yeast; human); assay: as above
[8] = biological target: wild-type EGFR 273-621, yeast surface displayed (Example 3) (yeast; human); assay: titration on yeast displaying EGFR 273-621, flow cytometry, three data sets
[9] = biological target: EGFR 273-621 C287R, yeast surface displayed (yeast; human); assay: titration on yeast displaying EGFR 273-621 C287R, flow cytometry, three data sets
monoclonal antibody 806 = assay: competition ELISA: peptide in solution against mAb […] binding to plate-coated 1-501 EGFR fragment

Sequence of monoclonal antibody 806 (VH): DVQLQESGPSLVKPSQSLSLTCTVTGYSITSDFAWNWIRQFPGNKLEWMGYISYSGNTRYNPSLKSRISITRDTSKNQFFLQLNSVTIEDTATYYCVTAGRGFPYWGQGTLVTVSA
Sequence of monoclonal antibody 806 (VL): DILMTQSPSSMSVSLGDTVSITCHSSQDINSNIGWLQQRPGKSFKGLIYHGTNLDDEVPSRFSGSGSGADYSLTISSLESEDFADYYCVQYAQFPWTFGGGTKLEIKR

Row | Molecule | ΔΔG compared to wild-type [1] | ΔΔG compared to wild-type [2] | Kd [3] | median fluorescence after mock preincubation [4] | change (%) in antibody reactivity after preincubation with EGF [5] | change (%) in antibody reactivity after preincubation with mAb[…] [5] | Kd [6] | Kd [7] | EC50 (read off the curve) [8] | EC50 (read off the curve) [9] | IC50 (read off the curve) (monoclonal antibody 806)
1 | monoclonal antibody 806 | 2.4 kcal/mol | 5.7 kcal/mol | > 30 µM | 7 | -48% | 163% | 127 nM | 2.13 nM | 2 nM | 100 nM | 
2 | monoclonal antibody 528 |  |  |  | 112 | -23% | -3% |  |  |  |  | 
3 | CGADSYEMEEDGVRKC [287-302 EGFR peptide (287…302)] |  |  |  |  |  |  |  |  |  |  | 3 µg/mL
